In this test the target is CD45 on human peripheral blood mononuclear cells (human (endogenous in PBMC)) (UniProt P08575).
UniProt P08575, sequence (P08575 26-1306): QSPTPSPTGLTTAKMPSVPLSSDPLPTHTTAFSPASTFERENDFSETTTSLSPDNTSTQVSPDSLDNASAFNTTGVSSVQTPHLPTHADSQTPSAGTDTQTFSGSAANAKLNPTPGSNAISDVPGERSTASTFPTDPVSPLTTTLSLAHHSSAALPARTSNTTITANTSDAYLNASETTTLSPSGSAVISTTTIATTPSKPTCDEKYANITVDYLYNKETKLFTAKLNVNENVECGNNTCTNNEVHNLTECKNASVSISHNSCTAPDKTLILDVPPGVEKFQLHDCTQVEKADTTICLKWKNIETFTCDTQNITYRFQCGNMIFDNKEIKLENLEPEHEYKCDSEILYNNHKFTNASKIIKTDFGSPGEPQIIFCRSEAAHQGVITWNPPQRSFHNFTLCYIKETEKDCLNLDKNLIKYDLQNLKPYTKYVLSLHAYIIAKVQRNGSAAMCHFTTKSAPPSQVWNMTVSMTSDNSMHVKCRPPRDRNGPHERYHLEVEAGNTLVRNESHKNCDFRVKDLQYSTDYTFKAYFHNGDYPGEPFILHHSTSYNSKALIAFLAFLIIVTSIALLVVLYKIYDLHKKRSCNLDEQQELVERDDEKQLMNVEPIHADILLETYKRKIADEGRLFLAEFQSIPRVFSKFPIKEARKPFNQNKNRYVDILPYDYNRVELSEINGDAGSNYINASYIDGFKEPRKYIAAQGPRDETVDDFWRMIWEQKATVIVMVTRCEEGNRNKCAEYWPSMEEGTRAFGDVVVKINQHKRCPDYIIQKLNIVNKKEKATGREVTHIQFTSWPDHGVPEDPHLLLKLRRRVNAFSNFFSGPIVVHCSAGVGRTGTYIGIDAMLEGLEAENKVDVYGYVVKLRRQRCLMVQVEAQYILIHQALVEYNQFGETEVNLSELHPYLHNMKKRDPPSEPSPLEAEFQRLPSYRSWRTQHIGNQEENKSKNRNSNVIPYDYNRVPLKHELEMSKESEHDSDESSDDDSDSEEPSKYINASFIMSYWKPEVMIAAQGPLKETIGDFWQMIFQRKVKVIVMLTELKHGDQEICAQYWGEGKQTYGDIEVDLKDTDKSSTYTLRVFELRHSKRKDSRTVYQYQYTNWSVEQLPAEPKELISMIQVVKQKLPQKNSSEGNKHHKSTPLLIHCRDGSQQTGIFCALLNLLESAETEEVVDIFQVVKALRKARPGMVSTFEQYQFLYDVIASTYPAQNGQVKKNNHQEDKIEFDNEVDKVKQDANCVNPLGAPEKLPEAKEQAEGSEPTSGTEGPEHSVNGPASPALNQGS

The substance “HAdV-D64 (Ad19a) protein E3/49K expressed on porcine L23 cells (natural protein)” displayed a phosphorylated p56lck(p505) in CD4+ T cells of human PBMC stimulated for 48 h with L23-E3/49K cells (15–20% with L23-control or L23-UL11 cells), intracellular flow cytometry (% of CD4+ T cells) of 40.
